First the molecules themselves.
B1: Full-length CARD8 (T60 isoform), wild type, co-expressed with DPP9S for cryo-EM (natural protein, human, UniProt Q9Y2G2-5 1-537, looked up)
chain: MEKKECPEKSSSSEEELPRRDSGSSRNIDASKLIRLQGSRKLLVDNSIRELQYTKTGIFFQAEACVTNDTVYRELPCVSETLCDISHFFQEDDETEAEPLLFRAVPECQLSGGDIPSVSEEQESSEGQDSGDICSEENQIVSSYASKVCFEIEEDYKNRQFLGPEGNVDVELIDKSTNRYSVWFPTAGWYLWSATGLGFLVRDEVTVTIAFGSWSQHLALDLQHHEQWLVGGPLFDVTAEPEEAVAEIHLPHFISLQAGEVDVSWFLVAHFKNEGMVLEHPARVEPFYAVLESPSFSLMGILLRIASGTRLSIPITSNTLIYYHPHPEDIKFHLYLVPSDALLTKAIDDEEDRFHGVRLQTSPPMEPLNFGSSYIVSNSANLKVMPKELKLSYRSPGEIQHFSKFYAGQMKEPIQLEITEKRHGTLVWDTEVKPVDLQLVAASAPPPFSGAAFVKENHRQLQARMGDLKGVLDDLQDNEVLTENEKELVEQEKTRQSKNEALLSMVEKKGDLALDVLFRSISERDPYLVSYLRQQNL
B4: DPP9, short isoform (DPP9S), co-expressed with CARD8 for cryo-EM (enzyme, human)
chain: MATTGTPTADRGDAAATDDPAARFQVQKHSWDGLRSIIHGSRKYSGLIVNKAPHDFQFVQKTDESGPHSHRLYYLGMPYGSRENSLLYSEIPKKVRKEALLLLSWKQMLDHFQATPHHGVYSREEELLRERKRLGVFGITSYDFHSESGLFLFQASNSLFHCRDGGKNGFMVSPMKPLEIKTQCSGPRMDPKICPADPAFFSFINNSDLWVANIETGEERRLTFCHQGLSNVLDDPKSAGVATFVIQEEFDRFTGYWWCPTASWEGSEGLKTLRILYEEVDESEVEVIHVPSPALEERKTDSYRYPRTGSKNPKIALKLAEFQTDSQGKIVSTQEKELVQPFSSLFPKVEYIARAGWTRDGKYAWAMFLDRPQQWLQLVLLPPALFIPSTENEEQRLASARAVPRNVQPYVVYEEVTNVWINVHDIFYPFPQSEGEDELCFLRANECKTGFCHLYKVTAVLKSQGYDWSEPFSPGEDEFKCPIKEEIALTSGEWEVLARHGSKIWVNEETKLVYFQGTKDTPLEHHLYVVSYEAAGEIVRLTTPGFSHSCSMSQNFDMFVSHYSSVSTPPCVHVYKLSGPDDDPLHKQPRFWASMMEAASCPPDYVPPEIFHFHTRSDVRLYGMIYKPHALQPGKKHPTVLFVYGGPQVQLVNNSFKGIKYLRLNTLASLGYAVVVIDGRGSCQRGLRFEGALKNQMGQVEIEDQVEGLQFVAEKYGFIDLSRVAIHGWSYGGFLSLMGLIHKPQVFKVAIAGAPVTVWMAYDTGYTERYMDVPENNQHGYEAGSVALHVEKLPNEPNRLLILHGFLDENVHFFHTNFLVSQLIRAGKPYQLQIYPNERHSIRCPESGEHYEVTLLHFLQEYL

What all share (assay): cryo-EM structure
For test [1], the target named is B4.
Test [2] has as its target B4. The source holds these as a separate data set.
The target in test [3] is B1.

Read-outs that look alike come from different tables or passages of the source.

For B1, in test [1], the binding result is “binds”.

B2: Full-length CARD8 S297A (autoproteolysis-deficient), co-expressed with DPP9S for cryo-EM (natural protein, human, UniProt Q9Y2G2-5 1-537, looked up)
chain: MEKKECPEKSSSSEEELPRRDSGSSRNIDASKLIRLQGSRKLLVDNSIRELQYTKTGIFFQAEACVTNDTVYRELPCVSETLCDISHFFQEDDETEAEPLLFRAVPECQLSGGDIPSVSEEQESSEGQDSGDICSEENQIVSSYASKVCFEIEEDYKNRQFLGPEGNVDVELIDKSTNRYSVWFPTAGWYLWSATGLGFLVRDEVTVTIAFGSWSQHLALDLQHHEQWLVGGPLFDVTAEPEEAVAEIHLPHFISLQAGEVDVSWFLVAHFKNEGMVLEHPARVEPFYAVLESPSFALMGILLRIASGTRLSIPITSNTLIYYHPHPEDIKFHLYLVPSDALLTKAIDDEEDRFHGVRLQTSPPMEPLNFGSSYIVSNSANLKVMPKELKLSYRSPGEIQHFSKFYAGQMKEPIQLEITEKRHGTLVWDTEVKPVDLQLVAASAPPPFSGAAFVKENHRQLQARMGDLKGVLDDLQDNEVLTENEKELVEQEKTRQSKNEALLSMVEKKGDLALDVLFRSISERDPYLVSYLRQQNL
As to B2, the binding result in test [2] is listed as “binds”.

B3: CARD8-CT (N-terminally degraded CARD8, UPA-CARD) in the purified CARD8-DPP9 complex (domain or fragment, human, UniProt Q9Y2G2-5 297-537, looked up)
chain: SLMGILLRIASGTRLSIPITSNTLIYYHPHPEDIKFHLYLVPSDALLTKAIDDEEDRFHGVRLQTSPPMEPLNFGSSYIVSNSANLKVMPKELKLSYRSPGEIQHFSKFYAGQMKEPIQLEITEKRHGTLVWDTEVKPVDLQLVAASAPPPFSGAAFVKENHRQLQARMGDLKGVLDDLQDNEVLTENEKELVEQEKTRQSKNEALLSMVEKKGDLALDVLFRSISERDPYLVSYLRQQNL
In the case of B3, in test [3], the binding result was “binds”. The term stoichiometry N denotes the number of molecules, sites or subunits per partner or assembly. As to B4, the “stoichiometry N” value in test [3] worked out at 1.

Values taken from publication doi:10.1101/2021.01.13.426575 (bioRxiv, 2021).
